Assay results from patent US20240327504A1 (MABLOC, published 2024).

Assays:
Assay in all cases: cell-based or functional assay
[1] = molecular target: T1, SARS-CoV-2 Spike, Delta variant (SARS-CoV-2, UniProt P0DTC2 14-1273)
[2] = molecular target: T2, SARS-CoV-2 Spike, Beta variant (SARS-CoV-2, UniProt P0DTC2 14-1273)
[3] = molecular target: T3, SARS-CoV-2 Spike, Alpha variant (SARS-CoV-2, UniProt P0DTC2 14-1273)
[4] = molecular target: T4, SARS-CoV-2 Spike, Gamma variant (SARS-CoV-2, UniProt P0DTC2 14-1273)
[5] = molecular target: T1, SARS-CoV-2 Spike, Delta variant; remark: listed apart in the source
[6] = molecular target: SARS-CoV-2 Spike, Lambda variant (SARS-CoV-2, UniProt P0DTC2 14-1273)
[7] = molecular target: T2, SARS-CoV-2 Spike, Beta variant; remark: listed apart in the source
[8] = molecular target: T3, SARS-CoV-2 Spike, Alpha variant; remark: listed apart in the source
[9] = molecular target: SARS-CoV-2 Spike, Zeta variant (SARS-CoV-2, UniProt P0DTC2 14-1273)
[10] = molecular target: T4, SARS-CoV-2 Spike, Gamma variant; remark: listed apart in the source
[11] = molecular target: SARS-CoV-2 Spike, Kappa variant (SARS-CoV-2, UniProt P0DTC2 14-1273)
[12] = molecular target: SARS-CoV-2 Spike, Eta variant (SARS-CoV-2, UniProt P0DTC2 14-1273)
[13] = molecular target: SARS-CoV-2 Spike, Epsilon variant (SARS-CoV-2, UniProt P0DTC2 14-1273)
[14] = molecular target: SARS-CoV-2 Spike, Iota variant (SARS-CoV-2, UniProt P0DTC2 14-1273)

B1: MR22950 antibody (antibody, V domains shown)
VH: QLQLQESGPGLVKPSEPLSLTCAVSGGFIGTNWWTWIRQPPGKGLEWIGRISGSVGSTSYNPSLKSRVTISRDTSKNQFSLNLNSLTAADTAVYYCAREGRLDTLDWGQGVLVIVSS
VL: QSVLTQPPSASEAARKSVTISCSGSSSNIGSYSVSWYQQFPGTPPKLLIYFNDQRASGVSDRFSGSKSGTSASLAISGLQTEDEADYYCAGWDDSLNGVLFGGGTRLTVLG
- Neut50 (ng/mL), authentic live virus, plaques on Vero cells [1]: 20.3 ng/mL
- Neut50 (ng/mL), authentic live virus, plaques on Vero cells [2]: 6.9 ng/mL
- Neut50 (ng/mL), authentic live virus, plaques on Vero cells [3]: 4.7 ng/mL
- Neut50 (ng/mL), authentic live virus, plaques on Vero cells [4]: 12.7 ng/mL
- Neut50 [5]: 7.8 ng/mL
- Neut50 [6]: 19 ng/mL
- Neut50 [7]: 33 ng/mL
- Neut50 [8]: 7.3 ng/mL
- Neut50 [9]: 3.8 ng/mL
- Neut50 [10]: 105 ng/mL
- Neut50 [11]: 15 ng/mL
- Neut50 [12]: 16 ng/mL
- Neut50 [13]: 10.8 ng/mL
- Neut50 [14]: 0.5 ng/mL
